In one data set the target is T1, MBP-ARP (Arabidopsis thaliana (Col-0), UniProt P45951 1-536).
T1 sequence: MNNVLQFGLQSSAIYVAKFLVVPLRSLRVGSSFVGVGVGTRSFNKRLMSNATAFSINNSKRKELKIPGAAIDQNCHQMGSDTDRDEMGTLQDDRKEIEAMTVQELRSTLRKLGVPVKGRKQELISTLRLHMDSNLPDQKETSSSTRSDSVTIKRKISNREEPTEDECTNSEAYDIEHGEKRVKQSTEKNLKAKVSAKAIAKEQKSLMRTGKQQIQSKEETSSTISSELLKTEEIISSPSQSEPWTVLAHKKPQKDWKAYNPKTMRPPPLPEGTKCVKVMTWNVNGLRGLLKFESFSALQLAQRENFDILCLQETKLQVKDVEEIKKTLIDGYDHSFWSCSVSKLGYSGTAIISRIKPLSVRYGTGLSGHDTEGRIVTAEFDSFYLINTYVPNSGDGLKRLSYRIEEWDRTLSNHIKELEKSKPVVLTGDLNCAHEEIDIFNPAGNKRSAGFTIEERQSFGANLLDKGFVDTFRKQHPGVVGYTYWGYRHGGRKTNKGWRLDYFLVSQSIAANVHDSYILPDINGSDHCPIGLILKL
Nature of the data set: EMSA; no Mg2+ listed; 100 and 300 nM protein, 50 nM DNA; EMSA: 10 mM Tris-HCl pH 8.0, 150 mM NaCl, 0.05% Triton X-100, 0.1 mg/mL BSA, 10% glycerol, 10 mM DTT; on ice 10 min; 8% native gel. The conditions noted are these: protein: recombinant; tags: N-terminal MBP (HRV 3C site); HisTrap purified; label: 32P (5' end of strand 1); blunt.

The next data set concerns the target T2, MBP-APE1L (Arabidopsis thaliana (Col-0), UniProt Q5XF07 1-364).
T2 sequence: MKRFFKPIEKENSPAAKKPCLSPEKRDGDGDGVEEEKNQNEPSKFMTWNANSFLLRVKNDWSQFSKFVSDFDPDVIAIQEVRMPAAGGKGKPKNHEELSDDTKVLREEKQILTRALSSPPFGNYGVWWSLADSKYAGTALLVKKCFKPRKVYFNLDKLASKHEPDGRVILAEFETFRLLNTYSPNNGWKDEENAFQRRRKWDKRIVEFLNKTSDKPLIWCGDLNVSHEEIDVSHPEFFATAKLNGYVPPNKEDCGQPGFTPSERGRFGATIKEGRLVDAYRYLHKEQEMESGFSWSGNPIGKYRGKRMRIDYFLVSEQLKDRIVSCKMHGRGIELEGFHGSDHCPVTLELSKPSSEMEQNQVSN
Described as above. The settings on record: protein: recombinant; tags: N-terminal MBP (HRV 3C site); HisTrap purified; label: 32P (5' end of strand 1); blunt.

B1: F35[5mC]/R35 (5mC 35-mer) (dsDNA)
DNA 1: GTACTGTGTGATACTATCGAATTCAGTATGATCTG
DNA 2: CAGATCATACTGAATTCGATAGTATCACACAGTAC
modifications: 5-methylcytosine at position 18 of strand 1
On to B1, for which the binding result in the data set with MBP-ARP and with MBP-APE1L was “binds” each time.
